Results: the Human Domainome abundance scans (Beltran et al. 2025)

B1: Nuclear receptor subfamily 4 group A member 2, residues 260 to 336; numbered along this chain, P43354 (parent)
chain: EGLCAVCGDNAACQHYGVRTCEGCKGFFKRTVQKNAKYVCLANKNCPVDKRRRNRCQYCRFQKCLAVGMVKEVVRTD
B2: Ankyrin repeat and SAM domain-containing protein 6, residues 774 to 836; numbered along this chain, Q68DC2 (parent)
chain: DEDELTGILKKLSLEKYQPIFEEQEVDMEAFLTLTDGDLKELGIKTDGSRQQILAAISELNAG

Variants of: B1
Assay: abundance fitness (aPCA) (normalised: wild type 0, dead -1); higher = more abundant; growth selection in yeast, the domain comes from the species named
Settings: Homo sapiens

Abundance fitness, by site and new letter:
C4: R -0.47
Y16: W -0.351 | A 0.049 | R -0.051 | G -0.01 | K -0.185 | P -0.112 | S -0.1 | N 0.029 | F 0.037 | I -0.432 | L -0.081 | V -0.185 | Q 0.025 | M 0.383 | T -0.131
Q14: Y 0.572 | K 0.256 | G 0.005 | M 0.199 | P -0.012 | I -0.211 | S 0.117 | A 0.207 | N -0.088 | V 0.095 | R -0.061 | L 0.221 | D -0.189 | E -0.129 | W 0.017 | T -0.013
R19: V 0.005 | M -0.175 | A 0.015 | Q -0.053 | N 0.182 | L 0.026 | Y -0.12 | E 0.064 | H 0.137 | D -0.202 | C 0.009 | I -0.03 | W -0.053 | P 0.037 | K 0.05 | S 0.034 | F 0.14
L3: V -0.054 | F -0.026
T20: S 0.204
H15: T 0.01 | L -0.014 | N -0.012 | A -0.138 | C -0.097 | K -0.101 | R -0.137 | M 0.054 | E -0.106 | W 0.013 | G -0.082 | V 0.016 | P 0.104 | S -0.053 | Q -0.318
G17: Q 0.044 | H -0.004 | T -0.097 | L -0.133 | K -0.346 | S -0.371 | P -0.841 | I 0.092 | W -0.383 | C 0.255 | R -0.173 | V -0.364 | E -0.116 | M -0.076
K29: D 0.11 | Y -0.344 | R -0.123 | M 0.296 | N -0.138 | A 0.014 | G -0.178 | S 0.121 | T -0.066 | L 0.008 | W -0.253 | Q -0.097 | I 0.214 | C -0.239 | H 0.071 | P -0.126
F28: L -0.15 | N -0.707 | R -0.75 | H -0.114 | S -0.381 | C -0.483 | Q -0.484 | I -0.262 | M -0.176 | T -0.049 | E -1.29 | A -0.1 | V -0.017 | D -0.747 | Y 0.23 | W -0.095 | P -1.06 | K -0.981
D9: W -0.058 | G 0.05
E22: G -0.142 | N 0.248 | K -0.067 | D 0.049 | V -0.213 | Y 0.06 | F -0.102 | H -0.02 | I -0.393 | P -0.001 | L -0.067 | W -0.208 | M 0.027 | Q 0.089 | S -0.204
G23: W -0.029 | E -0.016 | I 0.017 | A -0.136 | Q -0.208 | S 0.306 | C 0.065 | K 0.106
G26: L -0.137 | A -0.079 | E -0.214 | W -0.388 | R -0.174 | F 0.068 | C -0.138 | Q -0.171 | K -0.352 | V -0.191 | S -0.218 | H 0.16 | M -0.27 | D -0.062 | T 0.051
G8: L 0.457 | M -0.019 | D -0.459
C13: A 0.1 | Y -0.138 | L 0.083 | E 0.03 | W 0.082 | I -0.298 | D -0.022 | T 0.006 | H 0.136 | V 0.046 | K 0.099 | G 0.057 | F 0.116 | M 0.239 | R -0.103 | S 0.092
T31: Q -0.167
V18: R -0.29 | H -0.387 | S -0.121 | A 0.116 | E -0.044 | C -0.263 | G -0.112 | W -0.484 | Q -0.161 | F -0.111 | P -0.11 | L -0.15
K25: G 0.101 | T -0.12 | D -0.017 | L 0.057 | N 0.033 | M 0.082 | S -0.031 | F -0.047 | V 0.046 | P -0.675 | R 0.079 | A 0.127 | Y -0.503 | E 0.049 | Q -0.019 | W -0.013
A5: R -0.026 | L 0.219
F27: T -1.04 | I -0.705 | G -0.99 | H -0.624 | R -0.975 | E -0.959 | V -0.934 | L -0.431 | M -0.584 | A -1.06 | Y -0.846 | K -0.691 | S -1.12 | W -0.126
R30: G -0.235 | I -0.163 | V -0.216 | W -0.16 | M -0.148 | E -0.105 | F -0.032 | N -0.126 | D -0.032 | T -0.028 | S -0.086 | K -0.016 | Q -0.005 | C -0.086
G2: S -0.075 | V -0.191
C21: L -0.725 | A -0.632 | R -0.981 | G -0.46 | Q 0.041
C24: V -0.802 | R -0.954

Variants of: B2
Assay: as above
Settings: Homo sapiens

Abundance fitness: each site, then its substitutions
N61: L -0.299 | A -0.148 | R 0.007 | W -0.531 | K 0.071 | G -0.186 | M -0.333 | P -0.461 | Y -0.345 | S -0.173 | H -0.007 | Q -0.127 | T -0.001 | C -0.314 | D -0.297 | I -0.449
I57: Y -0.696
E59: K 0.02 | D -0.078 | I -0.505 | P -0.614 | T -0.106 | H 0.047 | V -0.267 | A 0 | C -0.272 | Y 0.02 | M -0.169 | Q -0.097 | S -0.113 | N -0.212 | W -0.35
S58: I -0.533 | Y -0.466 | A 0.045 | M -0.205 | G 0.034 | K 0.157 | N 0.118 | R 0.022 | F -0.434 | T -0.064 | Q -0.198 | H -0.114
A62: W -0.475 | L -0.178 | T -0.161 | K -0.25 | R -0.048 | S -0.09 | C -0.017 | G 0.011 | V -0.117 | E 0.035 | F -0.345 | H -0.074 | N -0.07 | M -0.2 | P -0.294 | Q -0.121 | D 0.031 | I -0.325
G63: A -0.007 | N -0.266 | T -0.105 | C -0.111 | F -0.532 | D -0.278 | R 0.073 | K -0.166 | V -0.135 | E -0.2 | W -0.464 | H -0.216 | S -0.069 | I -0.161 | P -0.052
L60: S -0.466 | I -0.073 | C 0.033 | A -0.147 | R -0.108 | G -0.301 | Y 0.048 | N -0.286 | V -0.03 | D -0.359 | M -0.054 | P -0.636 | F -0.04 | W 0.031 | K -0.508
